B4: full-length mouse DNA2 (enzyme)
chain: MEPLDELDLLLLEEDGGAEAVPRVELLRKKADALFPETVLSRGVDNRYLVLAVETSQNERGAEEKRLHVTASQDREHEVLCILRNGWSSVPVEPGDIVHLEGDCTSEPWIIDDDFGYFILYPDMMISGTSVASSIRCLRRAVLSETFRGSDPATRQMLIGTILHEVFQKAISESFAPERLQELALQTLREVRHLKEMYRLNLSQDEILCEVEEYLPSFSKWAEDFMRKGPSSEFPQMQLSLPSDGSNRSSPCNIEVVKSLDIEESIWSPRFGLKGKIDVTVGVKIHRDCKMKYKVMPLELKTGKESNSIEHRSQVVLYTLLSQERREDPEAGWLLYLKTGQMYPVPANHLDKRELLKLRNWLAASLLHRVSRAAPGEEARLSALPQIIEEEKTCKYCSQIGNCALYSRAVEEQGDDASIPEAMLSKIQEETRHLQLAHLKYFSLWCLMLTLESQSKDNRKTHQSIWLTPASELEESGNCVGNLVRTEPVSRVCDGQYLHNFQRKNGPMPATNLMAGDRIILSGEERKLFALSKGYVKKMNKAAVTCLLDRNLSTLPATTVFRLDREERHGDISTPLGNLSKLMESTDPSKRLRELIIDFREPQFIAYLSSVLPHDAKDTVANILKGLNKPQRQAMKRVLLSKDYTLIVGMPGTGKTTTICALVRILSACGFSVLLTSYTHSAVDNILLKLAKFKVGFLRLGQSHKVHPDIQKFTEEEICRSRSIASLAHLEELYNSHPIVATTCMGINHPIFSRKTFDFCIVDEASQISQPVCLGPLFFSRRFVLVGDHQQLPPLVVNREARALGMSESLFKRLERNESAVVQLTVQYRMNRKIMSLSNKLTYAGKLECGSDRVANAVLALPNLKDARLSLQLYADYSDSPWLAGVLEPDNPVCFLNTDKVPAPEQVENGGVSNVTEARLIVFLTSTFIKAGCSPSDIGVIAPYRQQLRIISDLLARSSVGMVEVNTVDKYQGRDKSLILVSFVRSNEDGTLGELLKDWRRLNVALTRAKHKLILLGSVSSLKRFPPLGTLFDHLNAEQLILDLPSREHESLSHILGDCQRD

For assay [1], the target named is T1, human primase small subunit PriS (human, UniProt P49642 1-420).
T1 sequence: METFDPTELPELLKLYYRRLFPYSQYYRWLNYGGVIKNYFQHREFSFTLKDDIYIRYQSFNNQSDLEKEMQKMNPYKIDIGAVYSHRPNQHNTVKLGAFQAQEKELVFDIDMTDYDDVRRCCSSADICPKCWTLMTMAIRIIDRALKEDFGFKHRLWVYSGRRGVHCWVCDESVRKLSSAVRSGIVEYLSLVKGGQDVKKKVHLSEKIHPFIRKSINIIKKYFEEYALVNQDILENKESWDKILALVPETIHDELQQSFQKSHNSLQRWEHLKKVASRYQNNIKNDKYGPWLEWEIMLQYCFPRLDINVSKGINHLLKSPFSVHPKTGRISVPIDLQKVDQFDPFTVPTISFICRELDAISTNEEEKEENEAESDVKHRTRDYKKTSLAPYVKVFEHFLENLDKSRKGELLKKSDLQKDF
The experiment in a line: cryo-EM structure.

The target of assay [2] is B4. Description: cryo-EM structure.
For assay [3], the target named is T2, Drosophila melanogaster CIAO1-CIAO2B core complex (Drosophila melanogaster, UniProt Q7K1Y4;Q9VTC4).
T2 sequence 1: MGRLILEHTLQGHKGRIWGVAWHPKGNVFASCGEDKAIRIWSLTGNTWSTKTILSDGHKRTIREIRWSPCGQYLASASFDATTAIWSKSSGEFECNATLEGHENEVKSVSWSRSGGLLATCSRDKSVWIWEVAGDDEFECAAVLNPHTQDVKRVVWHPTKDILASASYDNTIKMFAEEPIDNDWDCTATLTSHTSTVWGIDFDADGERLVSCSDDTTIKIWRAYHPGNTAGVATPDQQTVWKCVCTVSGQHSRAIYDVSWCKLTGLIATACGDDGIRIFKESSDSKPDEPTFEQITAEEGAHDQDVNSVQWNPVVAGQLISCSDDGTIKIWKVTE
T2 sequence 2: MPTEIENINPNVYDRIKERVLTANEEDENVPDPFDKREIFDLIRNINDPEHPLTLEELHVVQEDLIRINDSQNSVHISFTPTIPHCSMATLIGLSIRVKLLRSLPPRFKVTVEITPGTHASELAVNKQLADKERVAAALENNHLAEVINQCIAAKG
Description: crystal structure.

Assay [4] addresses T3, Drosophila melanogaster CIAO2B (Drosophila melanogaster, UniProt Q9VTC4 1-156).
T3 sequence: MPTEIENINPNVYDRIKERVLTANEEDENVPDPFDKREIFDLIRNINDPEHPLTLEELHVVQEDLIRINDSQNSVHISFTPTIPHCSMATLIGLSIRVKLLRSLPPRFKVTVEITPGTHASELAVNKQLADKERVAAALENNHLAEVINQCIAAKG
Description: crystal structure.

Assay [5] has as its target T4, human MMS19 (subunit of the purified CTC) (human, UniProt Q96T76 1-1030).
T4 sequence: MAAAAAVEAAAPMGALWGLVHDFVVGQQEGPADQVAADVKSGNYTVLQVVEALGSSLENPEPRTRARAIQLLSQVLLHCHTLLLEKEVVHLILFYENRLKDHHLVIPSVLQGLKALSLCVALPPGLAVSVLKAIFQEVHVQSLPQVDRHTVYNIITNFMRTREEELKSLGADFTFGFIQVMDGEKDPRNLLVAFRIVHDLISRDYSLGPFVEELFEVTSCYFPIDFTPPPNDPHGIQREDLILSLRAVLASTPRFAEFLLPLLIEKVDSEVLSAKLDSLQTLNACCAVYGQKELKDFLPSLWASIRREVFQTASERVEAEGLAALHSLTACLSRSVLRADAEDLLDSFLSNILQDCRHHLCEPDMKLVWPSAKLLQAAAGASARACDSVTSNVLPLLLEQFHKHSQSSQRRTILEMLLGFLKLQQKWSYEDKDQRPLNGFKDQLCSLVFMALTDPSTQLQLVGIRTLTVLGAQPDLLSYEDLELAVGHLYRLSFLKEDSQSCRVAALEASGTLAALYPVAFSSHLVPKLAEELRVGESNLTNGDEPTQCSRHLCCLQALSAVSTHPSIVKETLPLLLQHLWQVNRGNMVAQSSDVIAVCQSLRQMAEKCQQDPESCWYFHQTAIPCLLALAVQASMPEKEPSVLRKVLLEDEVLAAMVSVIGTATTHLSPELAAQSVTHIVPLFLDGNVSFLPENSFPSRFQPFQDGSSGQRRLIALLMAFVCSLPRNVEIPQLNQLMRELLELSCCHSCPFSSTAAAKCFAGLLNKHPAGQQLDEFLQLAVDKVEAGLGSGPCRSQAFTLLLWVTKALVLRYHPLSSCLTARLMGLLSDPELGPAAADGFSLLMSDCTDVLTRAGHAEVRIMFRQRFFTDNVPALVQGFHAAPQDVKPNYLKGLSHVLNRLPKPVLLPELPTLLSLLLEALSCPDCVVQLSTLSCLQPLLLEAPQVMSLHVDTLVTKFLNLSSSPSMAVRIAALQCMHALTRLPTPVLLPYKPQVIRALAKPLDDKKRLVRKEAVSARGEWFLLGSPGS
Description: cryo-EM structure.

Assay [6] addresses full-length human CIA targeting complex (MMS19-CIAO1-CIAO2B) (human, UniProt Q96T76;O76071;Q9Y3D0). The experiment in a line: cryo-EM structure.

Chain of full-length human CIA targeting complex (MMS19-CIAO1-CIAO2B) (O76071 whole entry, chain 2 of 2): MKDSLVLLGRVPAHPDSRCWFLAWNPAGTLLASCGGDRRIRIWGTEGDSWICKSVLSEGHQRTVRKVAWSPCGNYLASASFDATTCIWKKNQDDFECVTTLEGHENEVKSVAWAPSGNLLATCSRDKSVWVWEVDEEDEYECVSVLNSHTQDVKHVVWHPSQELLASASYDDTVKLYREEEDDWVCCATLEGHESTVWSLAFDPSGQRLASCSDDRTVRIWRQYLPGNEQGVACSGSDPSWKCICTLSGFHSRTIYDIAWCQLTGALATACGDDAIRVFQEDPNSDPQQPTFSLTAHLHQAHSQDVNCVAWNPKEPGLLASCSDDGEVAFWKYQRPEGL
Chain of full-length human CIA targeting complex (MMS19-CIAO1-CIAO2B) (Q9Y3D0 whole entry, chain 3 of 2): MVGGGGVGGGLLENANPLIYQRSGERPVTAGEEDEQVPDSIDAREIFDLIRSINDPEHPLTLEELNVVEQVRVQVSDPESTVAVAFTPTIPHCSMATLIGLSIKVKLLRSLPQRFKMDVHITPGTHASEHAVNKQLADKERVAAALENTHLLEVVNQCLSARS

B1: human CIAO1 (subunit of the purified CTC) (natural protein)
chain: not shown
Take B1: the binding result in assay [1] and in assay [2] was “binds” each time.

B2: C-terminal fragment of mouse MMS19 (residues 911-1031) (domain or fragment)
chain: ELPTLLSLLLEALSCPDSVVQLSTLSCLQPLLLEAPQIMSLHVDTLVTKFLNLSSSYSMAVRIAALQCMHALTRLPTSVLLPYKSQVIRALAKPLDDKKRLVRKEAVSARGEWFLLGSPGS
As for B2, the binding result in assay [3] and in assay [4] was “binds” each time.

B3: human primase large subunit PriL (natural protein)
chain: MEFSGRKWRKLRLAGDQRNASYPHCLQFYLQPPSENISLIEFENLAIDRVKLLKSVENLGVSYVKGTEQYQSKLESELRKLKFSYRENLEDEYEPRRRDHISHFILRLAYCQSEELRRWFIQQEMDLLRFRFSILPKDKIQDFLKDSQLQFEAISDEEKTLREQEIVASSPSLSGLKLGFESIYKIPFADALDLFRGRKVYLEDGFAYVPLKDIVAIILNEFRAKLSKALALTARSLPAVQSDERLQPLLNHLSHSYTGQDYSTQGNVGKISLDQIDLLSTKSFPPCMRQLHKALRENHHLRHGGRMQYGLFLKGIGLTLEQALQFWKQEFIKGKMDPDKFDKGYSYNIRHSFGKEGKRTDYTPFSCLKIILSNPPSQGDYHGCPFRHSDPELLKQKLQSYKISPGGISQILDLVKGTHYQVACQKYFEMIHNVDDCGFSLNHPNQFFCESQRILNGGKDIKKEPIQPETPQPKPSVQKTKDASSALASLNSSLEMDMEGLEDYFSEDS
In the case of B3, the binding result in assay [5] is reported as “binds”. As to B4, the binding result in assay [6] is recorded as “binds”.

The record behind these values is article doi:10.1101/2020.02.01.930206 (bioRxiv, 2020).
